Experimental findings from patent publication US10654911 are described below.

The term Kd denotes the constant that tells how readily two partners part at equilibrium.

This test concerns the target recombinant FVIII (Prospec Bio) (UniProt P00451). Nature of the test: ELISA: vWF-Fc variant coated on the plate, recombinant FVIII at 0-4000 pM, detected with sheep anti-FVIII polyclonal antibody and HRP secondary antibody. Background: An ELISA detects its analyte on a solid surface through an enzyme-linked reagent.
Chain of UniProt P00451 (P00451 other isoform, or with tags, fused parts or gaps limits assumed): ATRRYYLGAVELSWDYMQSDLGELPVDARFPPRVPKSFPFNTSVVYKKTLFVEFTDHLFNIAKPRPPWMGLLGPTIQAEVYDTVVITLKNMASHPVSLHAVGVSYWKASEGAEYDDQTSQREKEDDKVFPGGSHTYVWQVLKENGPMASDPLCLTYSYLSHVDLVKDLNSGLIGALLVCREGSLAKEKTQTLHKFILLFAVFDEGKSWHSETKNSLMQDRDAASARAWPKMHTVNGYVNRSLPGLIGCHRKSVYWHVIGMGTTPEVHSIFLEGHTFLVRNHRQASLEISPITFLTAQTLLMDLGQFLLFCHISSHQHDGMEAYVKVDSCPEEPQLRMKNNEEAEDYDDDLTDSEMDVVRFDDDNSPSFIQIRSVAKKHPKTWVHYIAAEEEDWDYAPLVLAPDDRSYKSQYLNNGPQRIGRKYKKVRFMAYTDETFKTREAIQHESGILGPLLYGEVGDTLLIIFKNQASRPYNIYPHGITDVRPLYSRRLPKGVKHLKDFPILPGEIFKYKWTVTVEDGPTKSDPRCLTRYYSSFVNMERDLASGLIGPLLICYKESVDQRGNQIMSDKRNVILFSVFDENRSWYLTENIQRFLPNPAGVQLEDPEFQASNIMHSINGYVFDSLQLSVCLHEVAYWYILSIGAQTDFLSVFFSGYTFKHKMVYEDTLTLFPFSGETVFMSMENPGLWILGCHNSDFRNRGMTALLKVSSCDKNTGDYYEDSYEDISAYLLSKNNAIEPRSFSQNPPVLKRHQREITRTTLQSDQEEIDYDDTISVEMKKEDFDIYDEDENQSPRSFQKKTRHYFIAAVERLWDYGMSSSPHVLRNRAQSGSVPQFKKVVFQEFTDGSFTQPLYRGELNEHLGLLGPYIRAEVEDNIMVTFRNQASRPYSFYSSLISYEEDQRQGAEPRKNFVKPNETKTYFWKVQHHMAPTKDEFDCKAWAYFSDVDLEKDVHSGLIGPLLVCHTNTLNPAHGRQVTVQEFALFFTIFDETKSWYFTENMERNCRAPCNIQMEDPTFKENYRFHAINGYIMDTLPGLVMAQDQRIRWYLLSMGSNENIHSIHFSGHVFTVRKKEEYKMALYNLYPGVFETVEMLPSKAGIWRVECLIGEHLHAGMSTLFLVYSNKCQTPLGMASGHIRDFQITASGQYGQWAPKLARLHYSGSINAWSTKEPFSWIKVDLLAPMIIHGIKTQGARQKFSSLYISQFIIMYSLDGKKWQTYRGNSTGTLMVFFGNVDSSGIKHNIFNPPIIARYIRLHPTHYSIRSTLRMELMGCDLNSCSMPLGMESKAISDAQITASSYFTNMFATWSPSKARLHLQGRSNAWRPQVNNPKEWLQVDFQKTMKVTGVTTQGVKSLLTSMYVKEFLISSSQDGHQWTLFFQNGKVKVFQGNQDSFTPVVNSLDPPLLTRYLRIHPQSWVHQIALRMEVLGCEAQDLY

With Pro-D′D3-Fc (Fc fusion), the Kd was 0.5 nM.
